This note sets out measurements from patent publication US20190276511A1 (BIONTECH RNA PHARMACEUTICALS, published 2019).

The target in one assay is T1, CD27-Fc (human, UniProt P26842 20-191).
T1 construct: extracellular domain; hinge included for covalent assembly; also called CD27 receptor-Fc fusion protein; not shown: human Fc gamma 1 region including the hinge region
T1 sequence (looked up): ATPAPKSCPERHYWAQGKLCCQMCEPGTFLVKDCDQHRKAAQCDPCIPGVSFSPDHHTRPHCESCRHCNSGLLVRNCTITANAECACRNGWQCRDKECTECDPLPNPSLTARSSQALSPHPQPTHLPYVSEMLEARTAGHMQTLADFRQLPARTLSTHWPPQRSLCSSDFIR
As to the kind of experiment: ELISA, coated receptor-Fc. The method, then: (§1) Receptor binding of the EHD2-scDuokines was analyzed by ELISA using fusion proteins of the extracellular region of CD40, CD27 and 4-1BB, respectively, with the human Fcγ1 region including the hinge region for covalent assembly (CD40-Fc, CD27-Fc, 4-1BB-Fc). Receptor-Fc fusion proteins (200 ng/well) were coated overnight at 4° C. and remaining binding sites were blocked with PBS, 2% skimmed milk powder (2% MPBS).

A further assay concerns the target T2, CD40-Fc (human, UniProt P25942 21-193).
T2 construct: extracellular domain; hinge included for covalent assembly; also called CD40 receptor-Fc fusion protein; not shown: human Fc gamma 1 region including the hinge region
Kind of assay: ELISA, coated receptor-Fc. The method, then: as §1
A general note: An ELISA detects its analyte on a solid surface through an enzyme-linked reagent.

In the next assay the target is CD40 receptor on cells (human, UniProt P25942 21-277). As to the kind of experiment: cell-based or functional assay.
In another assay the target is T3, 4-1BB-Fc (human, UniProt Q07011 24-186).
T3 construct: extracellular domain; hinge included for covalent assembly; also called 4-1BB receptor-Fc fusion protein; not shown: human Fc gamma 1 region including the hinge region
Kind of assay: ELISA, coated receptor-Fc.

T2 sequence (P25942 21-193 limits assumed): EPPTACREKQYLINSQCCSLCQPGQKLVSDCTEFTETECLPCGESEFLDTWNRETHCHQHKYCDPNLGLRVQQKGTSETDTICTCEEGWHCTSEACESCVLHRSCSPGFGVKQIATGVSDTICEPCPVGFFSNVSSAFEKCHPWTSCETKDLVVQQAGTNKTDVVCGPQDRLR
Sequence of CD40 receptor on cells (P25942 21-277): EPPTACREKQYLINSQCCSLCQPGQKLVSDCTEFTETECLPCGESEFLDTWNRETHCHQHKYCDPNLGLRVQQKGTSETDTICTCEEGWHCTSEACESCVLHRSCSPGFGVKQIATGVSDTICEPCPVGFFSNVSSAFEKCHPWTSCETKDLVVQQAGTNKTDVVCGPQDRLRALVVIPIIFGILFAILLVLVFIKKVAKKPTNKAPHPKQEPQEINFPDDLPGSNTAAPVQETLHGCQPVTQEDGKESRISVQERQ

B1: scCD40L-EHD2-scCD27L (ligand)
chain: GDQNPQIAAHVISEASSKTTSVLQWAEKGYYTMSNNLVTLENGKQLTVKRQGLYYIYAQVTFCSNREASSQAPFIASLCLKSPGRFERILLRAANTHSSAKPCGQQSIHLGGVFELQPGASVFVNVTDPSQVSHGTGFTSFGLLKLGGGSGGGGDQNPQIAAHVISEASSKTTSVLQWAEKGYYTMSNNLVTLENGKQLTVKRQGLYYIYAQVTFCSNREASSQAPFIASLCLKSPGRFERILLRAANTHSSAKPCGQQSIHLGGVFELQPGASVFVNVTDPSQVSHGTGFTSFGLLKLGGGSGGGGDQNPQIAAHVISEASSKTTSVLQWAEKGYYTMSNNLVTLENGKQLTVKRQGLYYIYAQVTFCSNREASSQAPFIASLCLKSPGRFERILLRAANTHSSAKPCGQQSIHLGGVFELQPGASVFVNVTDPSQVSHGTGFTSFGLLKLGGSGGDFTPPTVKILQSSCDGGGHFPPTIQLLCLVSGYTPGTINITWLEDGQVMDVDLSTASTTQEGELASTQSELTLSQKHWLSDRTYTCQVTYQGHTFEDSTKKCADSNGGSGGSLGWDVAELQLNHTGPQQDPRLYWQGGPALGRSFLHGPELDKGQLRIHRDGIYMVHIQVTLAICSSTTASRHHPTTLAVGICSPASRSISLLRLSFHQGCTIASQRLTPLARGDTLCTNLTGTLLPSRNTDETFFGVQWVRPGGGSGGGSLGWDVAELQLNHTGPQQDPRLYWQGGPALGRSFLHGPELDKGQLRIHRDGIYMVHIQVTLAICSSTTASRHHPTTLAVGICSPASRSISLLRLSFHQGCTIASQRLTPLARGDTLCTNLTGTLLPSRNTDETFFGVQWVRPGGGSGGGSLGWDVAELQLNHTGPQQDPRLYWQGGPALGRSFLHGPELDKGQLRIHRDGIYMVHIQVTLAICSSTTASRHHPTTLAVGICSPASRSISLLRLSFHQGCTIASQRLTPLARGDTLCTNLTGTLLPSRNTDETFFGVQWVRP
notes: From HEK293; Ig kappa leader left out; dimer through EHD2, about 50% covalently linked, SEC major peak at monomer size; also called EHD2-scDuokine scCD40L-EHD2-scCD27L; not shown: N-terminal FLAG tag
One may read the EC50 as the concentration giving half of the maximal effect. A higher EC50 goes with a need for much substance. Regarding B1, the EC50 with CD27-Fc turned out to be 2.03 nM; in the assay with CD40-Fc, 4.05 nM. Besides, the “Receptor activation (EC50, nM), IL-8 release from HT1080 cells” value with CD40 receptor on cells stood at 2 nM. In the assay with 4-1BB-Fc, the binding result is “no binding (tested: 100 nM (FIG. 16))”.
